Data on two substances can be found in patent US20100099203A1.

In assay [1] the target is Protein A (UniProt P38507). The assay is described as follows: Back scattering interferometry, free solution in PBS, 0.67 uM Protein A with IgG varied over 6 concentrations, 2 h at room temperature, PEG-5mer passivated chip.
In assay [2] the target is Protein A (UniProt P38507). The assay can be described thus: Back scattering interferometry, free solution in PBS, 0.67 uM Protein A with IgG varied over 6 concentrations, 2 h at room temperature, PEG 200 passivated chip.

For IgG (antibody), the equilibrium dissociation constant (Kd) with Protein A [1] worked out at 8 nM.
As for IgG Fc segment, the Kd with Protein A [2] came to 35 nM.

What is called Kd is the constant that tells how readily two partners part at equilibrium. A low value points to higher affinity.
